Experimental data published in publication PMC3747146 (PLoS ONE, 2013).

B1: MALT1(Casp-like), wildtype isolated protease domain (aa 333-566) (domain or fragment, UniProt Q9UDY8 333-566, looked up)
chain: QTTDQPLAKDKVALLIGNMNYREHPKLKAPLVDVYELTNLLRQLDFKVVSLLDLTEYEMRNAVDEFLLLLDKGVYGLLYYAGHGYENFGNSFMVPVDAPNPYRSENCLCVQNILKLMQEKETGLNVFLLDMCRKRNDYDDTIPILDALKVTANIVFGYATCQGAEAFEIQHSGLANGIFMKFLKDRLLEDKKITVLLDEVAEDMGKCHLTKGKQALEIRSSLSEKRALTDPIQG
notes: MALT1 (paracaspase), isolated protease (caspase-like) domain, aa 333-566; also called Casp-like construct; MALT1 caspase-like domain; source: E. coli BL21, GST fusion purified on glutathione-Sepharose, released with PreScission enzyme
B2: MALT1(ΔNT), wildtype protease domain and C-terminal extension (aa 333-824) (domain or fragment, UniProt Q9UDY8 333-824, looked up)
chain: QTTDQPLAKDKVALLIGNMNYREHPKLKAPLVDVYELTNLLRQLDFKVVSLLDLTEYEMRNAVDEFLLLLDKGVYGLLYYAGHGYENFGNSFMVPVDAPNPYRSENCLCVQNILKLMQEKETGLNVFLLDMCRKRNDYDDTIPILDALKVTANIVFGYATCQGAEAFEIQHSGLANGIFMKFLKDRLLEDKKITVLLDEVAEDMGKCHLTKGKQALEIRSSLSEKRALTDPIQGTEYSAESLVRNLQWAKAHELPESMCLKFDCGVQIQLGFAAEFSNVMIIYTSIVYKPPEIIMCDAYVTDFPLDLDIDPKDANKGTPEETGSYLVSKDLPKHCLYTRLSSLQKLKEHLVFTVCLSYQYSGLEDTVEDKQEVNVGKPLIAKLDMHRGLGRKTCFQTCLMSNGPYQSSAATSGGAGHYHSLQDPFHGVYHSHPGNPSNVTPADSCHCSRTPDAFISSFAHHASCHFSRSNVPVETTDEIPFSFSDRLRISEK
notes: MALT1 (paracaspase), protease domain and C-terminal extension, aa 333-824; also called ΔNT construct; source: E. coli BL21, GST fusion purified on glutathione-Sepharose, released with PreScission enzyme
B3: MALT1(ΔNT) E549A, protease domain and C-terminal extension (aa 333-824) (domain or fragment, UniProt Q9UDY8 333-824, looked up)
chain: QTTDQPLAKDKVALLIGNMNYREHPKLKAPLVDVYELTNLLRQLDFKVVSLLDLTEYEMRNAVDEFLLLLDKGVYGLLYYAGHGYENFGNSFMVPVDAPNPYRSENCLCVQNILKLMQEKETGLNVFLLDMCRKRNDYDDTIPILDALKVTANIVFGYATCQGAEAFEIQHSGLANGIFMKFLKDRLLEDKKITVLLDEVAEDMGKCHLTKGKQALAIRSSLSEKRALTDPIQGTEYSAESLVRNLQWAKAHELPESMCLKFDCGVQIQLGFAAEFSNVMIIYTSIVYKPPEIIMCDAYVTDFPLDLDIDPKDANKGTPEETGSYLVSKDLPKHCLYTRLSSLQKLKEHLVFTVCLSYQYSGLEDTVEDKQEVNVGKPLIAKLDMHRGLGRKTCFQTCLMSNGPYQSSAATSGGAGHYHSLQDPFHGVYHSHPGNPSNVTPADSCHCSRTPDAFISSFAHHASCHFSRSNVPVETTDEIPFSFSDRLRISEK
notes: MALT1 (paracaspase), protease domain and C-terminal extension, aa 333-824, with E549A; source: E. coli BL21, GST fusion purified on glutathione-Sepharose, released with PreScission enzyme

Molecular target: the molecule itself
Test: SEC; Superdex 200 on an ÄKTA FPLC at 4°C, PBS with 10% glycerol (pH 7.4), flow 0.35 ml/min; recombinant proteins released from GST with PreScission

| Protein | stoichiometry N | binding result |
| --- | --- | --- |
| B1 | 2 | – |
| B2 | – | binds |
| B3 | – | binds |
